# Measured values taken from the nanobody polyreactivity screen of Harvey et al. (2022).
# Assay: yeast display, Sf9 membrane polyspecificity reagent, FACS + sequencing; frameworks hold sequencing errors
# Summary of the method: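 In a synthetic yeast display library (Saccharomyces cerevisiae BJ5465), nanobody expression was induced with galactose for 36–48 hours. FACS gates were set low and high (top ~1%) using anti-HA fluorescence for expression and streptavidin fluorescence for binding of the Sf9 membrane reagent. Each polyreactivity label is drawn from the gate of origin.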
row,Sequence,polyreactivity (PSR sort gate)
1,QVQLVESGGGLVQAGGSLRLSCAASGSTFRYYAMGWYRQAPGKERELVAAISSSGGSTYYADSVKGRFTISRDNAKNTVYLQLNSLKPEDTAVYYCNRGVVYRTGRFDYWGQVTQVTVSS,high polyreactivity
2,QVQLVESGGGLVQAGGSLRLSCAASGSTFRYYAMGWYRQAPGKERELVAAITSSGGSTYYADSVKGRFTISRDNAKNTVYLQMNSLKPEDTAVYYCAVAVKNWVKLNYWGQGTQVTVSS,high polyreactivity
3,QVQLVESGGGLVQAGGSLRLSCAASGSTFRYYAMGWYRQAPGKVRELVAAITSSGGSTYYADSVKGRFTISRDNEKNTVYLQMNSLKPEDTAVYYCNAVSSYREDDYWGQGTQVTVSS,high polyreactivity
4,QVQLVESGGGLVQAGGSLRLSCAASGSTFRYYAMGWYRQSPGKEREFVAAITKVGSRTSYADSVKGRFTISRDNAKNTVYLQMNSLKPEDTAVYYCATRDSPRTKNGYYYWGQGTKVTVSS,high polyreactivity
5,QVQLVESGGGLVQAGGSLRLSCAASGSTFRYYGMGWYRQAPGKERELVATINRGGRTYYADSVKGRFTISRDNAKNTVYLQMNSLKPEDTAVYYCAADYYYYVACVHDDYWGQGTQVTGSS,low polyreactivity
6,QVQLVESGGGLVQAGGSLRLSCAASGSTFRYYVMGWSRQAPGKEMELVAGISYRGGTTYYADSVKGRFTISRDNAKITVYLQMNSMKPEDTAVYYCNAGYTLYHYYSWYAFGYWGQGTQGTVSS,low polyreactivity
7,QVQLVESGGGLVQAGGSLRLSCAASGSTFRYYVMGWYRQAPGKERELVAAISRTGGRTYYADSVKGRFTISRDNAKNTVYLQMNSLKPEDTAVYYCAARNVTTKRYYYWGQGTQVTVSS,high polyreactivity
8,QVQLVESGGGLVQAGGSLRLSCAASGSTFRYYVMGWYRQAPGKERELVARITSAASTNYADSVKGRFTISRDNAKNTVYLQMNSLNPEDTAVYYCAARKYGSRYRLKYDYWGQGTQVTVSS,high polyreactivity
9,QVQLVESGGGLVQAGGSLRLSCAASGSTFSAYAMGWYRQAPGKERELVAAISKRGGSTYYADSVKGRFTISRDNAKNTVYLQMNSLKPEDTAVYYCNKESLYREFDYWGQGTQVTVSS,low polyreactivity
10,QVQLVESGGGLVQAGGSLRLSCAASGSTFSAYGMGWYRQAPGKEMELVASISWNGGSTYYADSVQGRFTISGDNAKNTVYLQMNSLKPEDTAVYYCNTELVGHPDWLSWRYYYWGQGTQVTVSS,low polyreactivity
11,QVQLVESGGGLVQAGGSLRLSCAASGSTFSAYTMGWDRQAPGKERELVAAIRFDGGRTYYADSVKGRFTISRDNAKNTVYLQMNSLKPEDTAVYYCPAWQSYSYDYWGQGTQLTVSS,high polyreactivity
12,QVQLVESGGGLVQAGGSLRLSCAASGSTFSAYTMGWYRQAPGKERELVAAISYRGGSTYYADSVKGRFTISRDNAKNTVYLQMNSRKPEDTAVYYCAAERKHYGLYDYWGQGTQVTVSS,low polyreactivity
13,QVQLVESGGGLVQAGGSLRLSCAASGSTFSCNSMGWYRQAPGKERELVAAITSGGSTNYADSVKGRFTISRDNAKNTVFLQMNSLKPEDTAVYYCAKRYGYRRYYTASDYWGQGTQVTVSS,low polyreactivity
14,QVQLVESGGGLVQAGGSLRLSCAASGSTFSDNAMGWYRQAPGKERELVAAISSGGSTNYADSVKGRFTISRDNAKNTVYLQMNSLKPEDTAVYYCAREYYSRRYDYWGQGTQVTVSS,low polyreactivity
15,QVQLVESGGGLVQAGGSLRLSCAASGSTFSDYAMGWYRPAPGKERELVAAISSDGSTYYADSVKGRFTISRDNANNTVYLQMNILKPEDTAVYYCAKDVILVWPYATGRDYCGQGTQVTVSS,low polyreactivity
16,QVQLVESGGGLVQAGGSLRLSCAASGSTFSDYAMGWYRQAPGKERELVAAISSSGGRTYYADSVKGRFTISRDNAKNTVYLQMNSLKPEDTAVYYCNAYYIYILYGGQTYTGDYWGQGTQVTVSS,high polyreactivity
17,QVQLVESGGGLVQAGGSLRLSCAASGSTFSDYAMGWYRQEPGKERELVAAISSDGSTYYADSVKGRYTISRDNAKNTVYLQMNSLKPEDTAVYYCAKDVILVWPYATGRDFWGQGTQVTVSS,low polyreactivity
18,QVQLVESGGGLVQAGGSLRLSCAASGSTFSFNAKGWYRQAPGKARELVAAITGGDGTNYADSVKGRFTISRDNAKNTVYLQMNSLKPEDTAVNYCAADQWGSTEDYWFTYGYWGQGTQVTVSS,low polyreactivity
19,QVQLVESGGGLVQAGGSLRLSCAASGSTFSFYAMGWYRQAPGKERELVAAIDSGGRTKYADSVKGRFTISRDNAKNTVYLLMNSLKPEDTAVYYCAAVFRGWWLYDYWGQGTQVTVSS,low polyreactivity
20,QVQLVESGGGLVQAGGSLRLSCAASGSTFSFYAMGWYRQAPGKERELVAAITWTTGSTYADSVKGRFTISRDNAKNTVYLQMNSLKPEDTAVYYCAAKKFRRSRDSYYWGPGTQVTVSS,high polyreactivity
21,QVQLVESGGGLVQAGGSLRLSCAASGSTFSFYAMGWYRQAPGKERELVAVFTRGGSTYYADSVKGRFTISRDNAKNTVYLQMNSLKPEDTAVYYCAARSTSNGQRSLHYGYWGQGTQVTVSS,low polyreactivity
22,QVQLVESGGGLVQAGGSLRLSCAASGSTFSFYAMGWYRQAPGQERELVAAIRAGTRTYYADSVKGRFTISRDNAKNTVYLQMNSLKPEDTAVYYCAATRRRYPYYYWGQGTQVTVSS,high polyreactivity

row,Sequence,polyreactivity (PSR sort gate)
1,QVQLVESGGGLVQAGGSLRLSCAASGSTFSGKAMGWYRQAPGKERELVAAITSSGGSTYYADSVKGRFTISRDNAKNTVYLQMNSLKPEDTAVYYCAAKSRRTRRSYYWGQGTQVTVSS,high polyreactivity
2,QVQLVESGGGLVQAGGSLRLSCAASGSTFSGNAMGWYRQAPGKEMEMVAAISGRGGSTYYADSVKGRFTISRDNAKNTVFLQMKSLKPEDTAVYYCAKRRNTRGAYGYWGQGTQVTVSS,high polyreactivity
3,QVQLVESGGGLVQAGGSLRLSCAASGSTFSGNAMGWYRQAPGKEREFVAAIFSDGSTYYADSVKGRFTISRDNAKNTVYLQMNSLKPEDTAVYYCAAAWYEPATQTGYFEFDYWGQGTQVTVSS,low polyreactivity
4,QVQLVESGGGLVQAGGSLRLSCAASGSTFSGNAMGWYRQAPGKERELVAAINSVRTYYADSVKGRFTISRDNAKNTVYLQMNSLKPEDTAVYYCAARQGYSSRYPAKGYYWGQGTQVTVSS,high polyreactivity
5,QVQLVESGGGLVQAGGSLRLSCAASGSTFSGNAMGWYRQAPGKERELVAAISQSGGSTYYADSVKGRFTISRDNAKNTVYLQMNSLKPEDTAVYYCNRLYYFLARRMDSWGQGTQVTVSS,high polyreactivity
6,QVQLVESGGGLVQAGGSLRLSCAASGSTFSGYAMGWYRQAPGKARELVAAISWRGVRTYYADSVKGRFTISRDNAKNTVYLQMNSLKPEDTAVSYCAAVRYITKEFSWGQGTQVTVSW,high polyreactivity
7,QVQLVESGGGLVQAGGSLRLSCAASGSTFSGYAMGWYRQAPGKERELVAAISTDDTYYADSVKGRFTISRDNPKNTVYLQKNSLKPEDTAVYYCAADYLGYYGLEEHWGQGTQVTVSS,high polyreactivity
8,QVQLVESGGGLVQAGGSLRLSCAASGSTFSGYAMGWYRQAPGKERELVAAISWSGGRTYYADSVKGRFTISRDNAKNTVYLQMNSLKPEDTAVYYCAAVRKSAYEYWGQGTQVTVSS,high polyreactivity
9,QVQLVESGGGLVQAGGSLRLSCAASGSTFSGYAMRWYRPAPGKERELVAAISWSGGSTYYADSVKGRFTISRDNAKNTVYLQMNSLKPEDTSVNYCNALESTIRGYPYDYWGQGTQVTVSS,low polyreactivity
10,QVQLVESGGGLVQAGGSLRLSCAASGSTFSHNAMGWYRQAPGKERELVAAISTSGSRTYYADSVKGRFTISRDNAKNSVYLQMNSLKPEDTAVYYCNTVPIYYSGYDYWGQGTQVTVSS,high polyreactivity
11,QVQLVESGGGLVQAGGSLRLSCAASGSTFSHYTMGWSRQAPGKERELVAAINYGGASTYYADSVKGRFTISRDNAKNTVFLHMNSLKPEDTSVYYCAAANRPSEQDNYWGQGTQVTVSS,low polyreactivity
12,QVQLVESGGGLVQAGGSLRLSCAASGSTFSKNAMGWYREAPGKERELVAAISGSGGSTYYADSVKGRFTISRDNAKKTVYLQMNSLKPEESAVYYCAARYSGRRYGYWGQGTQVTVSS,high polyreactivity
13,QVQLVESGGGLVQAGGSLRLSCAASGSTFSKNAMGWYRQAPGKERELVASISTDGDSTYYADSVKGRFTISRDNAKNTVYFQMNSLKPEDTAVYYCNVVYYGRTWVPYVWEYDYWGQGTQVTVSS,low polyreactivity
14,QVQLVESGGGLVQAGGSLRLSCAASGSTFSKYAMGWYRQAPGKERELVATISSTGSTNYADSVKGRFTISRDNEKNTVYLQMNSLKPEDTAVYDCNAGRRGRPYYKYYYWGQGTQVTVSS,high polyreactivity
15,QVQLVESGGGLVQAGGSLRLSCAASGSTFSKYAMGWYRQAPWKESELVASITWSGGSTYYADSVKGRFTISRDNAKNTVYLQMNSLIPEDTAVYYCNVRTIQYNVGRWWEYDYWGQVTQVTVSS,low polyreactivity
16,QVQLVESGGGLVQAGGSLRLSCAASGSTFSLNDMGWYRQAPGKERELVAVISSSTGITYYADSVKGRFTISRDNAKNTVYLQMNSLKPEDTAVYYCNADKWEVYYTRMYYWGQGTQVTVSS,low polyreactivity
17,QVQLVESGGGLVQAGGSLRLSCAASGSTFSLNDRGWYRQAPGKERELVAVISSSTGITYYADSVKGRFTISRDNAKYTVYLQMNSLKPEDTAVYYCNADKWEVYYTRMYYWGQGTQVTVSS,low polyreactivity
18,QVQLVESGGGLVQAGGSLRLSCAASGSTFSLYAMGWYRQAPGKERELVAAISKRGDDTYYADSVKGRFTISRDNAKNTVYLQMNSLKPEDTAVYYCAAEYAAYEYRYWWYDYWGQGTQVTVSS,high polyreactivity
19,QVQLVESGGGLVQAGGSLRLSCAASGSTFSLYAMGWYRQAPGKERELVADINSGGGTYYADSVKGRFTISRDNAKNTVYLQMNSLKPEDTAVYYCTAASSWSYFWYDYWGQGTQVTVSS,high polyreactivity
20,QVQLVESGGGLVQAGGSLRLSCAASGSTFSNNARGWYRQAPGKERELVAAISRSGGSTYYADSVKGRFTISRDNAKNTVYLQMNSLKPEDTAVYYCAAYAPYYRTMDYWGQGTQVTVSS,high polyreactivity
21,QVQLVESGGGLVQAGGSLRLSCAASGSTFSNYAMGWYRQAPGKERELVASISNGGSTNYADSVKGRFTISRDNAKNNVYLQMNSLKPEDTAVYYCNAESKAKYDYWGQGTQVTVSS,low polyreactivity
